T1: C-terminal biotinylated human PAR-2 peptide SEQ ID NO:877 (Gly-40 to Ala) (human, not fully specified; C-terminal biotin (K-B))
T1 construct: alanine-scan mutant
T1 peptide: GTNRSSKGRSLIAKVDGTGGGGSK

T2: Peptide D (N-terminal domain of human PAR-2-mouse IgG2a) (Human)
T2 chain: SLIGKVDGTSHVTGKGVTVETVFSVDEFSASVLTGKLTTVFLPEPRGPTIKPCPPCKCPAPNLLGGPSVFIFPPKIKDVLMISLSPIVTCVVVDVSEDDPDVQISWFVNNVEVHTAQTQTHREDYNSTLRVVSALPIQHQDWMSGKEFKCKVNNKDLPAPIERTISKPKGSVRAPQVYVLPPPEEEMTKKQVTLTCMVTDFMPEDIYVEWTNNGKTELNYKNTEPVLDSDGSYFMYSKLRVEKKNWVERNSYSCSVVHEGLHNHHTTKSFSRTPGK

T3: C-terminal biotinylated human PAR-2 peptide SEQ ID NO:872 (Gly-35 to Ala) (human, not fully specified; C-terminal biotin (K-B))
T3 construct: alanine-scan mutant
T3 peptide: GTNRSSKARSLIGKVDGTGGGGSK

T4: C-terminal biotinylated human PAR-2 peptide SEQ ID NO:873 (Arg-36 to Ala) (human, not fully specified; C-terminal biotin (K-B))
T4 construct: alanine-scan mutant
T4 peptide: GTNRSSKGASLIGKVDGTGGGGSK

T5: C-terminal biotinylated human PAR-2 peptide SEQ ID NO:874 (Ser-37 to Ala) (human, not fully specified; C-terminal biotin (K-B))
T5 construct: alanine-scan mutant
T5 peptide: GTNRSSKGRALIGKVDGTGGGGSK

T6: C-terminal biotinylated human PAR-2 peptide SEQ ID NO:875 (Leu-38 to Ala) (human, not fully specified; C-terminal biotin (K-B))
T6 construct: alanine-scan mutant
T6 peptide: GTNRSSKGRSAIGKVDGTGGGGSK

T7: C-terminal biotinylated human PAR-2 peptide SEQ ID NO:876 (Ile-39 to Ala) (human, not fully specified; C-terminal biotin (K-B))
T7 construct: alanine-scan mutant
T7 peptide: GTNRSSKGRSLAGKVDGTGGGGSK

T8: C-terminal biotinylated human PAR-2 peptide SEQ ID NO:879 (Val-42 to Ala) (human, not fully specified; C-terminal biotin (K-B))
T8 construct: alanine-scan mutant
T8 peptide: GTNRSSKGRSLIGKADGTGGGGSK

T9: C-terminal biotinylated human PAR-2 peptide SEQ ID NO:881 (Gly-44 to Ala) (human, not fully specified; C-terminal biotin (K-B))
T9 construct: alanine-scan mutant
T9 peptide: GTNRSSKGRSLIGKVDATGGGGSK

T10: C-terminal biotinylated human PAR-2 peptide SEQ ID NO:882 (Thr-45 to Ala) (human, not fully specified; C-terminal biotin (K-B))
T10 construct: alanine-scan mutant
T10 peptide: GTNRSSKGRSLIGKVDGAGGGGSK

T11: Peptide J (pig PAR-2) (Pig (Sus scrofa))
T11 peptide: GTSRPSKGRSLIGKADNT

B1: H4H581P (antibody, human IgG4, V domains shown)
VH: QVQLVESGGGVVQPGRSLRLSCVASGFTFSRYGIHWVRQAPGKGLEWVIVISYDGINKYYADSVKGRFTISRDNSKNTVYLQMNSLRAEDTAVYYCAKGDFWSGYFDYWGQGTLVTVSS
VL: DIVMTQTPLSSPVTLGQPASISCRSSQSLVHSDGNTYLSWLHQRPGQPPRLLIYKISNRFSGVPDRFSGSGAGTDFTLQISRVEAEDVGIYYCMQATQFPTFGGGTKVEIK
notes: also called mAb H4H581P; H1H581P variable regions
B2: H4H588N (antibody, human IgG4, V domains shown)
VH: EVQLLESGGGLVQPGGSLRLSCAASGFTFSSYAMTWVRQAPGKGLYWVSAISGGRGSAYYADSVKGRFTISRDNSKNTLYLQMNSLRAEDTAVYYCAKEGDSGYDLAYWGRGTLVTVSS
VL: DIQMTQSPSSLSASVGDRVTITCRARQGISNNLAWLQQKPGKAPKSLIYAASSLQSGIPSKFSGSGSGTYFTLTISSLQPEDFATYYCQQYKSSPLTFGGGTKVEIK
notes: also called H2M588N variable regions
B3: H4H583P (antibody, human IgG4, V domains shown)
VH: QVQLVESGGGVVQPGMSLRLSCTASGFTFRRYGMHWVRQAPGKGLEWVAVIWYDGSNKYYADSVKGRFTITRDNSKNTLYLQMNSLRAEDTAIYFCASEITIGDWFDPRGQGTLVTVSS
VL: AIQMTQSPSSLSASVGDRVTITCRASQGIRNDLGWFQQKPGKVPKLLIYAASTLHSGVPSRFSGSGFGTDFTLTISSLQPEDFATYYCLQDFNYPLTFGGGTKVEIK
notes: also called H1H583P variable regions

What was measured:
[1] = molecular target: T1, C-terminal biotinylated human PAR-2 …; experiment: BLI Exp2
Description: (§1) In order to more particularly identify the amino acids of PAR-2 with which the PAR-2 antibodies interact, an alanine scanning study was carried out using peptides comprising the activating PAR-2 protease cleavage site.
(§2) The ability of each peptide mutant to bind to PAR-2 antibodies was measured using biolayer interferometry (Octet Red; ForteBio). Each peptide (2.5 μg/ml) was captured on streptavidin coated biosensor tips (Octet SA sensor) for 10 seconds. To measure binding and dissociation between each peptide and PAR-2 antibody, the peptide-coated biosensors were contacted with 200 nM solutions of PAR-2 antibodies for 5 minutes (binding) followed by transfer to buffer with no antibody for 10 min (dissociation). […] The results are expressed as percent binding and percent T_{1/2} relative to WT peptide (Tables 24-28).

[2] = molecular target: T2, Peptide D (N-terminal domain of human …); experiment: peptide ELISA
full length human PAR-2 [3] = molecular target: T12, full length human PAR-2 (human, UniProt P55085 26-397); experiment: cell-based or functional assay
full length human PAR-2 [4] = molecular target: T12, full length human PAR-2; experiment: cell-based or functional assay; remark: listed apart in the source
[5] = molecular target: T3, C-terminal biotinylated human PAR-2 …; experiment: alanine scan by biolayer interferometry (Octet Red): C-terminal biotin peptide on streptavidin tips, 200 nM antibody; T1/2 relative to wild-type peptide SEQ ID NO:871
Description: as §1, §2

[6] = molecular target: T4, C-terminal biotinylated human PAR-2 …; experiment: as above
Description: as §1, §2

[7] = molecular target: T5, C-terminal biotinylated human PAR-2 …; experiment: as above
Description: as §1, §2

[8] = molecular target: T6, C-terminal biotinylated human PAR-2 …; experiment: as above
Description: as §1, §2

[9] = molecular target: T7, C-terminal biotinylated human PAR-2 …; experiment: as above
Description: as §1, §2

[10] = molecular target: T8, C-terminal biotinylated human PAR-2 …; experiment: as above
Description: as §1, §2

[11] = molecular target: T9, C-terminal biotinylated human PAR-2 …; experiment: as above
Description: as §1, §2

[12] = molecular target: T10, C-terminal biotinylated human PAR-2 …; experiment: as above
Description: as §1, §2

Peptide J (pig PAR-2) = molecular target: T11, Peptide J (pig PAR-2); experiment: SPR, antibody captured

T12 sequence (P55085 26-397 G138A limits assumed): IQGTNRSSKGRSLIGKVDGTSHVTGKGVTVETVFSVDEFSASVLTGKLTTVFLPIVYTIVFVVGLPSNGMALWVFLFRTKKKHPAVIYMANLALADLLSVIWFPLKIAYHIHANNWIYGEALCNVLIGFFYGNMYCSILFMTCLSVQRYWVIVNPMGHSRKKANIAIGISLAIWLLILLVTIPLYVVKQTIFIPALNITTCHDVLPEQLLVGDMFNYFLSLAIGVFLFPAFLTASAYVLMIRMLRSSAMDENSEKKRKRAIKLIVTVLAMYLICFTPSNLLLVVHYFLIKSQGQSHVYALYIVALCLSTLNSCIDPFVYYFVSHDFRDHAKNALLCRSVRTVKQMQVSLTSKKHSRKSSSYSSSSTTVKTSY

Binder	% Rel Binding [1]	% Rel T1/2 [1]	binding result [2]	IC50, NF-kB-luciferase, 10 nM Human Trypsin 1 (full length human PAR-2 [3])	IC50, NF-kB-luciferase, 200 nM Factor Xa (full length human PAR-2 [3])	IC50, NF-kB-luciferase, 750 nM Lung Tryptase (full length human PAR-2 [3])	IC50, calcium mobilization FLIPR, 100 nM Trypsin (full length human PAR-2 [4])	percent of T1/2 relative to wild-type peptide (average of duplicate experiments) [5]	percent of T1/2 relative to wild-type peptide (average of duplicate experiments) [6]	percent of T1/2 relative to wild-type peptide (average of duplicate experiments) [7]	percent of T1/2 relative to wild-type peptide (average of duplicate experiments) [8]	percent of T1/2 relative to wild-type peptide (average of duplicate experiments) [9]	percent of T1/2 relative to wild-type peptide (average of duplicate experiments) [10]	percent of T1/2 relative to wild-type peptide (average of duplicate experiments) [11]	percent of T1/2 relative to wild-type peptide (average of duplicate experiments) [12]	binding result (Peptide J (pig PAR-2))	Kd (Peptide J (pig PAR-2))	T1/2 (Peptide J (pig PAR-2))
B1	92%	15%	binds	7.4 nM	5.3 nM	1.1 nM	55 nM	118%	106%	5%	0.2%	0.1%	1%	121%	112%			
B2	30%	0%	binds	42.7 nM	17.1 nM	1.6 nM	29.5 nM	177%	140%	85%	71%	22%	0.5%	1%	64%	no binding		
B3																	190 nM	9.6 s
